Source: US20160031996A1 (CSL, published 2016)
Where a chain is given by its changes, count along the chain named.

Tests used:
[1] = target: T1, soluble human IL-3Rα 1-306-His R84A (human, UniProt P26951 19-307); test: Western blot, supernatants of 293FS cells
T1 construct: supernatant of 293FS cells; also called R84, soluble alanine
T1 sequence: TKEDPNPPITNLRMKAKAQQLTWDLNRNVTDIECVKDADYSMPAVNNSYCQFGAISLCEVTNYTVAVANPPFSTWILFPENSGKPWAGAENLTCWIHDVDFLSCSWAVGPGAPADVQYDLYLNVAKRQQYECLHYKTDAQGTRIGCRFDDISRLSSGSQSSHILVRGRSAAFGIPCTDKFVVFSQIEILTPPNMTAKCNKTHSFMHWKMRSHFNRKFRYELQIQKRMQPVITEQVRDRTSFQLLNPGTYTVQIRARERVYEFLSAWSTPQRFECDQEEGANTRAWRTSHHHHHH

[2] = target: T2, soluble human IL-3Rα 1-306-His P97A (human, UniProt P26951 19-307); test: Western blot, supernatants of 293FS cells
T2 construct: supernatant of 293FS cells; also called P97, soluble alanine
T2 sequence: T1 sequence with A66R, P79A

[3] = target: T3, soluble human IL-3Rα 1-306-His W93A (human, UniProt P26951 19-307); test: Western blot, supernatants of 293FS cells
T3 construct: supernatant of 293FS cells; also called W93, soluble alanine
T3 sequence: T1 sequence with A66R, W75A

[4] = target: T4, soluble human IL-3Rα 1-306-His Y67A (human, UniProt P26951 19-307); test: Western blot, supernatants of 293FS cells
T4 construct: supernatant of 293FS cells; also called Y67, soluble alanine
T4 sequence: T1 sequence with Y49A, A66R

[5] = target: T5, human IL-3Rα E51Q/S59A double mutant, full length (human, UniProt P26951 19-378); test: flow cytometry on transfected cells (FIG. 5)
T5 chain: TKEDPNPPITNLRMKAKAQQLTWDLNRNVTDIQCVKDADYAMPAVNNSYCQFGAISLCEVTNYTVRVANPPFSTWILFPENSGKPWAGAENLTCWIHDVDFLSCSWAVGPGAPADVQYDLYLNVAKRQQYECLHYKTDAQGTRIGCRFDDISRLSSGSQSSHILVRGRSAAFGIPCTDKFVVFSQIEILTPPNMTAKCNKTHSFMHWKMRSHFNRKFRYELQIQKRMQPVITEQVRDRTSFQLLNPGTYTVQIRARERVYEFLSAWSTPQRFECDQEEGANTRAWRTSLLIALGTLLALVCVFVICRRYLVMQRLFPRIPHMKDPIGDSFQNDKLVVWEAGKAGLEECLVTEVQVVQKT

[6] = target: T6, human IL-3Rα E51Q/S59A/P88T triple mutant, full length (human, UniProt P26951 19-378); test: flow cytometry on transfected cells (FIG. 5)
T6 chain: T5 chain with P70T

[7] = target: T7, human IL-3Rα S59A/P88T double mutant, full length (human, UniProt P26951 19-378); test: flow cytometry on transfected cells (FIG. 5)
T7 chain: T5 chain with Q33E, P70T

Measured: binding result

B1: antibody CSL362 (antibody, V domains shown)
VH: EVQLVQSGAEVKKPGESLKISCKGSGYSFTDYYMKWARQMPGKGLEWMGDIIPSNGATFYNQKFKGQVTISADKSISTTYLQWSSLKASDTAMYYCARSHLLRASWFAYWGQGTMVTVSS
VL: DIVMTQSPDSLAVSLGERATINCESSQSLLNSGNQKNYLTWYQQKPGQPPKPLIYWASTRESGVPDRFSGSGSGTDFTLTISSLQAEDVAVYYCQNDYSYPYTFGQGTKLEIKR
no binding: all assays above
